Key:
Test in all cases: SPR
[1] = molecular target: CVB3/GS12-55/GS/CHN/2012 (VP3-234V) full particles (coxsackievirus B3, isolate GS12-55/GS/CHN/2012)
[2] = molecular target: CVB3/XJ12-36/XJ/CHN/2012 (VP3-234N) full particles (coxsackievirus B3, isolate XJ12-36/XJ/CHN/2012)
[3] = molecular target: CVB3/HuN16-54/HuN/CHN/2016 (VP3-234D) full particles (coxsackievirus B3, isolate HuN16-54/HuN/CHN/2016)
[4] = molecular target: CVB3/MKP3 (VP3-234Q) full particles (coxsackievirus B3, strain MKP)

Substance	Kd [1]	Kd [2]	Kd [3]	Kd [4]
soluble extracellular domain of the human CD55 protein (from UniProt P08174 35-285) (receptor)	10 µM	7.8 µM	46 µM	0.465 µM
soluble extracellular D1 and D2 domains of the human CAR protein (from UniProt P78310 20-236) (receptor)	–	–	–	3.16 µM
